The source of these data is the RNAGym collection of RNA variant scans (doi:10.1093/nar/gkz1192).

The labels stand for the following.
B1: CPEB3 Ribozyme (parent)
chain: UAACAGGGGGCCACAGCAGAAGCGUUCACGUCGCAGCCCCUGUCAGAUUCUGGUGAAUCUGCGAAUUCUGCUGUAUAUCUC

Variants of B1 are the subject of the data set. The data set is described as follows: self-cleavage, relative activity (ratio to wild type); higher = more cleavage; in vitro, sequencing. Summed up:
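Libraries of CPEB3 self-cleaving ribozyme mutants came from rounds of error-prone PCR and carried barcodes, which DNA sequencing matched to variants. In vitro transcription used T7 RNA polymerase at 37°C for 5 hours, with a further 15 min in DNase I before EDTA stopped the reaction; the ribozymes cleaved during both steps. The RNA was reverse transcribed with template switching and sequenced on Illumina. Relative activity is the cleaved/total read fraction of a variant divided by that of the unmutated ribozyme, averaged over three batches with at least 5 reads.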
Regarding A45G U78A, the self-cleavage is 0.91.

As for A45G U78C, the self-cleavage is 0.76. For A45G U78G, the self-cleavage turned out to be 0.81. Consider C44U U66A, for which the self-cleavage worked out at 0.51.

Take G46A A64G: the self-cleavage worked out at 0.19.

For the variant G46A A64U, the self-cleavage was 0.08.

Consider G46A A75G, for which the self-cleavage came out at 0.25. The same measure for A45G U54G: 0.56; for A45G U54A: 0.85; for A45G U54C: 0.88. C44U G55A: the self-cleavage worked out at 0.07.

On to A45U G55U, for which the self-cleavage turned out to be 0.24.

Consider A45U G55A, for which the self-cleavage amounted to 0.14. Consider C44U A65G, for which the self-cleavage is 0.13. Take A45C U48C: the self-cleavage amounted to 0.4. As to C44U U60A, the self-cleavage amounted to 0.14.

As to C44U U60C, the self-cleavage was found to be 0.52. Regarding A45U A56U, the self-cleavage was found to be 0.23.

Turning to A45U A56C, the self-cleavage came to 0.28. A45U A56G: the self-cleavage was 0.27. The same measure for A45U U78C: 0.44. With A45U U78G, the self-cleavage came out at 0.65.

Turning to A45U U78A, the self-cleavage is 0.62. As to A45C A57G, the self-cleavage is 0.26. Turning to G46A G53A, the self-cleavage was found to be 0.45. In the case of G46C U76C, the self-cleavage was found to be 0.5. The same measure for G46C U76A: 0.22; for G46A C50U: 0.17; for G46A C50G: 0.21. As to G46A A47C, the self-cleavage came out at 0.17. For G46A A47U, the self-cleavage was determined as 0.24. On to A45G C71U, for which the self-cleavage is 0.65.

In the case of A45G C71G, the self-cleavage came out at 0.3. A45C A56G: the self-cleavage came out at 0.26. The same measure for A45C A56U: 0.25; for A45C A56C: 0.42; for G46U: 0.28. Consider G46A, for which the self-cleavage was 0.33. For G46C, the self-cleavage was found to be 0.32. Regarding A45G A47G, the self-cleavage came out at 0.46. For the variant A45G A47U, the self-cleavage stood at 0.28. On to G46A G73A, for which the self-cleavage came out at 0.99. Take C44U G61C: the self-cleavage stood at 0.2. In the case of G46A U54C, the self-cleavage was found to be 0.06. Regarding A45C A65U, the self-cleavage was 0.12. In the case of A45C A65G, the self-cleavage was determined as 0.42. As to A45G U66A, the self-cleavage was 0.41. Consider A45G U66C, for which the self-cleavage worked out at 0.34. A45C U67C: the self-cleavage came out at 0.15. Regarding A45C C81U, the self-cleavage was found to be 0.45. The same measure for A45C U78C: 0.42; for A45G U74C: 1.1; for A45G U74G: 1.21. The same measure for A45G U74A: 1.13; for A45C U49C: 0.11; for A45G G55U: 0.4. The figure for A45G G55C is 0.67; for A45G G55A it is 0.43. As to C44U A77U, the self-cleavage was 0.22.

As to A45U U74A, the self-cleavage is 1.03. Turning to A45U U74G, the self-cleavage was 1.09.

Turning to A45U U74C, the self-cleavage worked out at 0.87. The same measure for C44U C79U: 0.16; for G46C A56U: 0.13; for C44U A64G: 0.21. As for C44U A64U, the self-cleavage came out at 0.18. As for G46A A57G, the self-cleavage was determined as 0.16.

As for C44U U67C, the self-cleavage turned out to be 0.11. The figure for C44U U67A is 0.14. On to A45G C62U, for which the self-cleavage came out at 0.22. Turning to A45G C62A, the self-cleavage was 0.45. For A45G C62G, the self-cleavage came to 0.25. As to C44U U54C, the self-cleavage turned out to be 0.32. For C44U U54A, the self-cleavage was found to be 0.36.

Take A45U U54C: the self-cleavage is 0.53. Regarding A45U U54G, the self-cleavage was 0.21. For A45U U54A, the self-cleavage was found to be 0.51. On to G46C U72A, for which the self-cleavage is 0.25. G46U U67C: the self-cleavage was found to be 0.03. With G46U U67A, the self-cleavage stood at 0.23. Consider A45C C68U, for which the self-cleavage was 0.28.

In the case of G46A U58C, the self-cleavage was found to be 0.38. For the variant G46U U49A, the self-cleavage came out at 0.29. The figure for A45G U72A is 0.62. On to A45G U72C, for which the self-cleavage came out at 0.98. As to G46U A47G, the self-cleavage came out at 0.15. A45U U67A: the self-cleavage is 0.24. For A45U U67C, the self-cleavage came to 0.27. Consider A45U U67G, for which the self-cleavage stood at 0.17.

G46A U66C: the self-cleavage stood at 0.25. As to A45U U60G, the self-cleavage turned out to be 0.68. A45U U60C: the self-cleavage was determined as 0.46. Turning to A45U U60A, the self-cleavage stood at 1.09. Consider G46U U54C, for which the self-cleavage worked out at 0.14. G46U U54G: the self-cleavage was found to be 0.16. The same measure for G46A C68A: 0.15. The figure for A45G A57G is 0.66. The figure for A45G A57U is 0.43; for A45G A57C it is 0.24. As to G46U U60C, the self-cleavage was determined as 0.19. The figure for G46U U60A is 0.38; for A45G G73C it is 0.69; for A45G G73A it is 1.16.

On to A45G G73U, for which the self-cleavage is 1.29. On to C44U A45C, for which the self-cleavage was determined as 0.46.

Consider C44U A45G, for which the self-cleavage amounted to 0.41.

In the case of A45U U72A, the self-cleavage came out at 0.39. For A45U U72C, the self-cleavage is 0.5. On to A45U U72G, for which the self-cleavage came to 0.61.

As for G46U G73A, the self-cleavage worked out at 0.81. The same measure for A45U U69A: 0.31. For the variant A45U U69C, the self-cleavage worked out at 0.31. For the variant A45U U69G, the self-cleavage came out at 0.51.

Turning to G46U A64U, the self-cleavage worked out at 0.18. For the variant G46U A64G, the self-cleavage came out at 0.16. The same measure for C44U U51A: 0.35. Regarding C44U U51C, the self-cleavage amounted to 0.1. With G46A A56G, the self-cleavage stood at 0.25.

Consider C44U U78G, for which the self-cleavage is 0.12.

C44U U78C: the self-cleavage amounted to 0.35. On to C44U U78A, for which the self-cleavage was 0.3. Take A45C G73A: the self-cleavage came out at 1.19. For the variant G46A A77U, the self-cleavage was determined as 0.48. The same measure for G46A A77G: 0.27; for A45G U67C: 0.34. The same measure for A45G U67A: 0.38; for G46A U78C: 0.38; for A45C U60A: 0.33. With A45C U60C, the self-cleavage was found to be 0.41.

In the case of A45U C50A, the self-cleavage worked out at 0.16. As for A45U C50G, the self-cleavage is 0.06. As for G46U A65G, the self-cleavage turned out to be 0.07. The figure for G46U A56U is 0.17; for G46U A56G it is 0.18. As to G46U C68U, the self-cleavage stood at 0.23. Consider C44U U72C, for which the self-cleavage turned out to be 0.19.

For C44U U72A, the self-cleavage was 0.14. As for A45C A75U, the self-cleavage came out at 0.5.

Turning to A45C A75G, the self-cleavage was found to be 0.14. For the variant A45U C68G, the self-cleavage stood at 0.25. The figure for A45U C68U is 0.53; for A45U U51C it is 0.48. A45U U51A: the self-cleavage amounted to 0.33. In the case of A45U U51G, the self-cleavage was found to be 0.46.

Turning to G46U A77G, the self-cleavage is 0.2.

As for A45G C59U, the self-cleavage amounted to 0.62. Regarding A45G C59A, the self-cleavage is 0.63. On to A45G C59G, for which the self-cleavage was found to be 0.2. On to A45C U80A, for which the self-cleavage came out at 0.48.

With A45C U80C, the self-cleavage stood at 0.4. The figure for A45U A64U is 0.27; for A45U A64G it is 0.33. As to A45U A57U, the self-cleavage was determined as 0.33. For the variant A45U A57G, the self-cleavage was 0.31. Consider A45U A57C, for which the self-cleavage is 0.35. Turning to A45G A56C, the self-cleavage stood at 0.39. On to A45G A56G, for which the self-cleavage came out at 0.6. Turning to A45G A56U, the self-cleavage came out at 0.4.

For the variant G46U A75C, the self-cleavage is 0.37. For the variant G46U A75G, the self-cleavage came out at 0.22. For A45G G63A, the self-cleavage is 0.48. As for A45G G63U, the self-cleavage was found to be 0.74. The figure for A45G U49A is 0.42; for A45G U49G it is 0.1; for A45G U49C it is 0.27. The figure for A45G U60A is 0.53; for A45G U60C it is 1.13.
